Eight variants from IntAct's records for PubMed 29892012 can be followed below.

To fix the notation:
B1: Liprin-alpha-1 (Homo sapiens), Q13136 (parent)
chain: MMCEVMPTISEAEGPPGGGGGHGSGSPSQPDADSHFEQLMVSMLEERDRLLDTLRETQETLALTQGKLHEVGHERDSLQRQLNTALPQEFAALTKELNVCREQLLEREEEIAELKAERNNTRLLLEHLECLVSRHERSLRMTVVKRQAQSPAGVSSEVEVLKALKSLFEHHKALDEKVRERLRVALERCSLLEEELGATHKELMILKEQNNQKKTLTDGVLDINHEQENTPSTSGKRSSDGSLSHEEDLAKVIELQEIISKQSREQSQMKERLASLSSHVTELEEDLDTARKDLIKSEEMNTKLQRDVREAMAQKEDMEERITTLEKRYLAAQREATSVHDLNDKLENEIANKDSMHRQTEDKNRQLQERLELAEQKLQQTLRKAETLPEVEAELAQRVAALSKAEERHGNIEERLRQMEAQLEEKNQELQRARQREKMNEEHNKRLSDTVDKLLSESNERLQLHLKERMAALEDKNSLLREVESAKKQLEETQHDKDQLVLNIEALRAELDHMRLRGASLHHGRPHLGSVPDFRFPMADGHTDSYSTSAVLRRPQKGRLAALRDEPSKVQTLNEQDWERAQQASVLANVAQAFESDADVSDGEDDRDTLLSSVDLLSPSGQADAHTLAMMLQEQLDAINKEIRLIQEEKENTEQRAEEIESRVGSGSLDNLGRFRSMSSIPPYPASSLASSSPPGSGRSTPRRIPHSPAREVDRLGVMTLLPPSREEVRDDKTTIKCETSPPSSPRALRLDRLHKGALHTVSHEDIRDIRNSTGSQDGPVSNPSSSNSSQDSLHKAPKKKGIKSSIGRLFGKKEKGRPGQTGKEALGQAGVSETDNSSQDALGLSKLGGQAEKNRKLQKKHELLEEARRQGLPFAQWDGPTVVVWLELWVGMPAWYVAACRANVKSGAIMSALSDTEIQREIGISNPLHRLKLRLAIQEIMSLTSPSAPPTSRTTLAYGDMNHEWIGNEWLPSLGLPQYRSYFMECLVDARMLDHLTKKDLRGQLKMVDSFHRNSFQCGIMCLRRLNYDRKELERKREESQSEIKDVLVWSNDRVIRWILSIGLKEYANNLIESGVHGALLALDETFDFSALALLLQIPTQNTQARAVLEREFNNLLVMGTDRRFDEDDDKSFRRAPSWRKKFRPKDIRGLAAGSAETLPANFRVTSSMSSPSMQPKKMQMDGNVSGTQRLDSATVRTYSC
B2: Zyxin (Homo sapiens), Q15942 (parent)
chain: MAAPRPSPAISVSVSAPAFYAPQKKFGPVVAPKPKVNPFRPGDSEPPPAPGAQRAQMGRVGEIPPPPPEDFPLPPPPLAGDGDDAEGALGGAFPPPPPPIEESFPPAPLEEEIFPSPPPPPEEEGGPEAPIPPPPQPREKVSSIDLEIDSLSSLLDDMTKNDPFKARVSSGYVPPPVATPFSSKSSTKPAAGGTAPLPPWKSPSSSQPLPQVPAPAQSQTQFHVQPQPQPKPQVQLHVQSQTQPVSLANTQPRGPPASSPAPAPKFSPVTPKFTPVASKFSPGAPGGSGSQPNQKLGHPEALSAGTGSPQPPSFTYAQQREKPRVQEKQHPVPPPAQNQNQVRSPGAPGPLTLKEVEELEQLTQQLMQDMEHPQRQNVAVNELCGRCHQPLARAQPAVRALGQLFHIACFTCHQCAQQLQGQQFYSLEGAPYCEGCYTDTLEKCNTCGEPITDRMLRATGKAYHPHCFTCVVCARPLEGTSFIVDQANRPHCVPDYHKQYAPRCSVCSEPIMPEPGRDETVRVVALDKNFHMKCYKCEDCGKPLSIEADDNGCFPLDGHVLCRKCHTARAQT
partner: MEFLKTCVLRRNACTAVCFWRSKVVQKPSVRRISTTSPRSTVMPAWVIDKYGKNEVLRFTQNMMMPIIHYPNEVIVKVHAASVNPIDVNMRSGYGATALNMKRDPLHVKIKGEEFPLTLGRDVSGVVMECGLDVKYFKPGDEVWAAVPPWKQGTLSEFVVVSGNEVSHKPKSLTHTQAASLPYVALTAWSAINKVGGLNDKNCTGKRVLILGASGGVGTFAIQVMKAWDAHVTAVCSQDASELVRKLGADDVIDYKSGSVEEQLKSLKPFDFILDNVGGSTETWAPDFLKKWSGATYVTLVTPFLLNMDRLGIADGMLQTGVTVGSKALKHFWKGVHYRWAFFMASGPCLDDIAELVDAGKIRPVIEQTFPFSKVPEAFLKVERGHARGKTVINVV
B3: Islet cell autoantigen 1 (Homo sapiens), Q05084 (parent)
chain: MSGHKCSYPWDLQDRYAQDKSVVNKMQQKYWETKQAFIKATGKKEDEHVVASDADLDAKLELFHSIQRTCLDLSKAIVLYQKRICFLSQEENELGKFLRSQGFQDKTRAGKMMQATGKALCFSSQQRLALRNPLCRFHQEVETFRHRAISDTWLTVNRMEQCRTEYRGALLWMKDVSQELDPDLYKQMEKFRKVQTQVRLAKKNFDKLKMDVCQKVDLLGASRCNLLSHMLATYQTTLLHFWEKTSHTMAAIHESFKGYQPYEFTTLKSLQDPMKKLVEKEEKKKINQQESTDAAVQEPSQLISLEEENQRKESSSFKTEDGKSILSALDKGSTHTACSGPIDELLDMKSEEGACLGPVAGTPEPEGADKDDLLLLSEIFNASSLEEGEFSKEWAAVFGDGQVKEPVPTMALGEPDPKAQTGSGFLPSQLLDQNMKDLQASLQEPAKAASDLTAWFSLFADLDPLSNPDAVGKTDKEHELLNA
B4: Coiled-coil domain-containing protein 120 (Homo sapiens), Q96HB5-4 (parent)
chain: MRREPRYQGQVGPDIHTDSERTLSSHQPRPLDSTKMEVKGQLISSPTFNAPAALFGEAAPQVKSERLRGLLDRQRTLQEALSLKLQELRKVCLQEAELTGQLPPECPLEPGERPQLVRRRPPTARAYPPPHPNQAHHSLCPAEELALEALEREVSVQQQIAAAARRLALAPDLSTEQRRRRRQVQADALRRLHELEEQLRDVRARLGLPVLPLPQPLPLSTGSVITTQGVCLGMRLAQLSQEDVVLHSESSSLSESGASHDNEEPHGCFSLAERPSPPKAWDQLRAVSGGSPERRTPWKPPPSDLYGDLKSRRNSVASPTSPTRSLPRSASSFEGRSVPATPVLTRGAGPQLCKPEGLHSRQWSGSQDSQMGFPRADPASDRASLFVARTRRSNSSEALLVDRAAGGGAGSPPAPLAPSASGPPVCKSSEVLYERPQPTPAFSSRTAGPPDPPRAARPSSAAPASRGAPRLPPVCGDFLLDYSLDRGLPRSGGGTGWGELPPAAEVPGPLSRRDGLLTMLPGPPPVYAADSNSPLLRTKDPHTRATRTKPCGLPPEAAEGPEVHPNPLLWMPPPTRIPSAGERSGHKNLALEGLRDWYIRNSGLAAGPQRRPVLPSVGPPHPPFLHARCYEVGQALYGAPSQAPLPHSRSFTAPPVSGRYYADFLYPPELSARLSDLTLEGEQSSSSDTQTPGTLV
partner: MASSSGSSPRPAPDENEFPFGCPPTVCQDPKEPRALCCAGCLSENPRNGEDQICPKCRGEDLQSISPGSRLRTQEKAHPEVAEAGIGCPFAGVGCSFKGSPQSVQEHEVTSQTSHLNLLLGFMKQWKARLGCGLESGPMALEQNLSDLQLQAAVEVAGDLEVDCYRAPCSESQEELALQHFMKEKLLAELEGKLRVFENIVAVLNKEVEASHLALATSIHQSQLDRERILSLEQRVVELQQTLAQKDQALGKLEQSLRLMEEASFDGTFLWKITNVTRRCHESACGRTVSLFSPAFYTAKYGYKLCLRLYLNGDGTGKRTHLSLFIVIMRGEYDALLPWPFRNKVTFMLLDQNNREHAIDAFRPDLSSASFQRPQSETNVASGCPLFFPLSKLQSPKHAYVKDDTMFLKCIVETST
B5: Coiled-coil alpha-helical rod protein 1 (Homo sapiens), Q8TD31 (parent)
chain: MFPPSGSTGLIPPSHFQARPLSTLPRMAPTWLSDIPLVQPPGHQDVSERRLDTQRPQVTMWERDVSSDRQEPGRRGRSWGLEGSQALSQQAEVIVRQLQELRRLEEEVRLLRETSLQQKMRLEAQAMELEALARAEKAGRAEAEGLRAALAGAEVVRKNLEEGSQRELEEVQRLHQEQLSSLTQAHEEALSSLTSKAEGLEKSLSSLETRRAGEAKELAEAQREAELLRKQLSKTQEDLEAQVTLVENLRKYVGEQVPSEVHSQTWELERQKLLETMQHLQEDRDSLHATAELLQVRVQSLTHILALQEEELTRKVQPSDSLEPEFTRKCQSLLNRWREKVFALMVQLKAQELEHSDSVKQLKGQVASLQEKVTSQSQEQAILQRSLQDKAAEVEVERMGAKGLQLELSRAQEARRRWQQQTASAEEQLRLVVNAVSSSQIWLETTMAKVEGAAAQLPSLNNRLSYAVRKVHTIRGLIARKLALAQLRQESCPLPPPVTDVSLELQQLREERNRLDAELQLSARLIQQEVGRAREQGEAERQQLSKVAQQLEQELQQTQESLASLGLQLEVARQGQQESTEEAASLRQELTQQQELYGQALQEKVAEVETRLREQLSDTERRLNEARREHAKAVVSLRQIQRRAAQEKERSQELRRLQEEARKEEGQRLARRLQELERDKNLMLATLQQEGLLSRYKQQRLLTVLPSLLDKKKSVVSSPRPPECSASAPVAAAVPTRESIKGSLSVLLDDLQDLSEAISKEEAVCQGDNLDRCSSSNPQMSS
partner: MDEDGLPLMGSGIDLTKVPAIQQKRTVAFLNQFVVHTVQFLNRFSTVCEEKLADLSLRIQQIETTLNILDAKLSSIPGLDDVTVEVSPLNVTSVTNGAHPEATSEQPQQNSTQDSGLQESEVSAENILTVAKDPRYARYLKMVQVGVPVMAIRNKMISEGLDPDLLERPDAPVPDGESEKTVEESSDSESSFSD
B6: Coiled-coil alpha-helical rod protein 1 (Homo sapiens), Q8TD31 (parent)
chain: B5 chain
partner: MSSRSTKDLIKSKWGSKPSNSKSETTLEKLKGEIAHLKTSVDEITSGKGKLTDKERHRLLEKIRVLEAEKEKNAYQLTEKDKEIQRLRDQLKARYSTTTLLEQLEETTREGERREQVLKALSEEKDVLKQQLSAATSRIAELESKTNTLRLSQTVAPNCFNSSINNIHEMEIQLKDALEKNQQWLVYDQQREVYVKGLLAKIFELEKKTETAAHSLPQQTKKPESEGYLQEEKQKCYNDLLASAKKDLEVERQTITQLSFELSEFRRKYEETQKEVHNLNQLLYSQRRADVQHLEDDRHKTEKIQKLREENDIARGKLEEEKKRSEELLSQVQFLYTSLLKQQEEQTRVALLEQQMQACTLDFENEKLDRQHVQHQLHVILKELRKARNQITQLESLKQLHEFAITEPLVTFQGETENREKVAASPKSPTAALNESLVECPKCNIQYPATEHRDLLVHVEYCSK
B7: Zinc finger protein 786 (Homo sapiens), Q8N393 (parent)
chain: MAEPPRLPLTFEDVAIYFSEQEWQDLEAWQKELYKHVMRSNYETLVSLDDGLPKPELISWIEHGGEPFRKWRESQKSGNIICSSVDMHFDPGFEEQLFWGSQQAMNSGKTKSHFQLDPESQCSFGSFVSFRPDQGITLGSPQRHDARAPPPLACGPSESTLKEGIPGPRNLDLPGLWDVPAWESTQHPWPVCGESCWENNHLVMHQRGHSKDRTRRAWEKFNKRAETQMPWSSPRVQRHFRCGVCGKSFRRKLCLLRHLAAHTGRGPFRNADGEMCFRHELTHPSHRLPQQGEKPAQCTPCGKRSLPVDSTQARRCQHSREGPASWREGRGASSSVHSGQKPGSRLPQEGNSHQEGDTEALQHGAEGPCSCSECGERSPMSARLASPCRAHTGEKPFQCAHCTKRFRLRRLLQVHQHAHGGERPFSCRKCGKGFAKQCKLTEHIRVHSGEKPFRCAKCGRNFRQRGQLLRHQRLHTDEKPFQCPECGLSFRLESMLRAHRLRHGGERPFSCSECGRGFTHQCKLREHLRVHSGERPFQCLKCDKRFRLKGILKAHQHTHSKERPFSCGECGKGFTRQSKLTEHLRVHSGERPFQCPECNRSFRLKGQLLSHQRLHTGERPFQCPECDKRYRVKADMKAHQLLHSGEMPFSCECGKGFVKHSKLIEHIRTHTGEKPFQCPKCDKSFRLKAQLLSHQGLHTGERPFHCPECDKNFRERGHMLRHQRIHRPERPFACGDCGKGFIYKSKLAEHIRVHTKSCPAPNELDIKKRLSQLFAMIEADWS

One experiment covers variants of B1. As to conditions: with txlna_human TXLNA.
Consider P389L, for which the “effect of a mutation on the interaction” value is “with no effect”.

In a further experiment the parent is B1. The note with it: with 2a5d_human PPP2R5D.
P389L: the “effect of a mutation on the interaction” value is “with no effect”.

In a further experiment the parent is B1. The note with it: with ccnh_human CCNH.
As for P389L, the “effect of a mutation on the interaction” value is on record as “with no effect”.

Variants of B2 are the subject of another experiment. As to conditions: with rt4i1_human RTN4IP1, Q8WWV3.
Regarding R167G, the “effect of a mutation on the interaction” value was “with no effect”.

The variants in another experiment derive from B3. The note with it: with rab2a_human RAB2A.
Turning to Q443R, the “effect of a mutation on the interaction” value was “disrupting interaction strength”.

Another experiment covers variants of B3. As to conditions: with rab2b_human RAB2B.
As for Q443R, the “effect of a mutation on the interaction” value is “disrupting interaction strength”.

The variants in the next experiment derive from B4. The note with it: with traf1_human TRAF1, Q13077.
As for R346W, the “effect of a mutation on the interaction” value is listed as “with no effect”.

The next experiment covers variants of B5. As to conditions: with wasc3_human WASHC3, Q9Y3C0.
For W337R, the “effect of a mutation on the interaction” value is listed as “disrupting interaction strength”.

In the next experiment the parent is B6. As to conditions: with cep55_human CEP55, Q53EZ4.
Regarding W337R, the “effect of a mutation on the interaction” value is “disrupting interaction strength”.

The variants in a further experiment derive from B7. The note with it: with kr103_human KRTAP10-3, P60369.
Sequence of kr103_human KRTAP10-3, P60369 (P60369 whole entry): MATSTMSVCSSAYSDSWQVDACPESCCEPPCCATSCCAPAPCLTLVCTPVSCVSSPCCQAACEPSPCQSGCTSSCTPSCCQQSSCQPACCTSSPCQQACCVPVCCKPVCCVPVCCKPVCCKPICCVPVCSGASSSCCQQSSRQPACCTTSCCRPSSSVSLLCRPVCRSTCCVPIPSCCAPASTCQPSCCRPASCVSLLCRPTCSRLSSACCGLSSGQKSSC
With S112R, the “effect of a mutation on the interaction” value was “with no effect”.

The variants in a further experiment derive from B7. The note with it: with kr103_human KRTAP10-3, P60369. The source holds these as a separate data set.
With V37A, the “effect of a mutation on the interaction” value is listed as “with no effect”.
